The target of the data set is YB-1 (DNA-binding protein) (Homo sapiens, UniProt P67809 SEQ:1-317). The experiment in a line: EMSA; 200 ng protein, 1 ug poly dI-dC, on ice 30 min. As to conditions: tags: His tag (pET-28a(+), Ni-NTA purified from E. coli BL21-GOLD(DE3)); label: 32P 5' end. Here is the method: An oligonucleotide consisting of the nucleotide sequence represented by SEQ ID No:.3 was mixed with an oligonucleotide consisting of the nucleotide sequence complementary with its nucleotide sequence, and this oligonucleotide mixture was boiled for 5 minutes and then allowed to stand at room temperature. Then this oligonucleotide mixture in an amount corresponding to 10 pmol DNA, 2 μl of a T4 kinase buffer, 1 μl of T4 kinase and 6 μl of γ-³²P-ATP(>3000 Ci/mmol, DAIICHI KAGAKU YAKUHIN, Catalog No.NEG-502A) were mixed with distilled water to make the total volume 20 μl, which was then kept at 37° C. for 1 hour. This mixture was loaded onto Quick Spin Column G-25 (Boehringer, Catalog No.1273949). This column was centrifuged (2,500 rpm, 5 minutes), and the effluent was recovered. The effluent thus recovered was subjected to a 10% polyacrylamide gel electrophoresis to recover a gel portion containing a ³²P-labelled double-stranded DNA. the gel portion thus recovered was combined with distilled water, kept at 37° C. over one whole day and night, and extracted to obtain the ³²P-labelled DNA (hereinafter referred to as the binding probe). Thus the binding probe was prepared. […]
Sequence of YB-1 (DNA-binding protein) (P67809 other isoform, or with tags, fused parts or gaps): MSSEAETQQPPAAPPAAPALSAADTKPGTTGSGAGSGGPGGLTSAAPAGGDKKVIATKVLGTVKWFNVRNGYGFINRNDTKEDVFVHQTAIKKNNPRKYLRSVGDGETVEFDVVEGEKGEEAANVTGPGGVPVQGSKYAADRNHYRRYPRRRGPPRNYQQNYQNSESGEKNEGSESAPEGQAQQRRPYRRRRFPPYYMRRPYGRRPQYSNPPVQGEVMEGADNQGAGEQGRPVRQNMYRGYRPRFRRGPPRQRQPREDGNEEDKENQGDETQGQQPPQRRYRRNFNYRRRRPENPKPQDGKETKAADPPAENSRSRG

B1: COL1A2 promoter binding probe (dsDNA)
DNA 1: CCCCCCATTCGCTCCCTCCTCTGCGCCCCCGCAGGCTC
DNA 2: GAGCCTGCGGGGGCGCAGAGGAGGGAGCGAATGGGGGG
For the molecule B1, the binding result is given as “binds”.

B2: COL1A2 promoter non-binding probe (dsDNA)
DNA 1: CCCCGGATTCGCTCCCTCCTCTGCGCCCCCGCAGGCTC
DNA 2: GAGCCTGCGGGGGCGCAGAGGAGGGAGCGAATCCGGGG
Turning to B2, the binding result was “no binding”.

(Values after patent US20020091083, “DNA-binding protein YB-1-containing collagen accumulation inhibitors” (Sumitomo Chemical Company, Ltd., published 2002).)
